# B1: TPR t1 (parent)
# chain: GACCAAUCUGCCCUCAGAGCUCGAGAACAUCUUCGGAUGCAGAGGAGGCAGGCUUCGGUGGCGCGAUAGCGCCAACGUCCUCAACCUCCAAUGCAUCCCACCACAUGAUGAUGCCUGAAGAGCCUUGGUUUUUUG
# Variants of: B1
# Assay: polymerase ribozyme fitness, log enrichment relative to wild type (log ratio); higher = more active; in vitro selection for triplet polymerase activity
# In short: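 For each subunit of a heterodimeric triplet polymerase ribozyme, a mutant library was built by PCR and transcribed, then taken through a single in vitro selection round in triplicate. Selection involved annealing to a biotinylated primer, the partner subunit and triplets, incubation frozen at −7 °C, gel excision of extended constructs, capture on streptavidin beads and RT-PCR. Genotypes were retained after Illumina sequencing of inputs and outputs only with ≥10 input reads and ≥1 read in each output. Fitness is defined as the logarithm of a genotype's enrichment relative to wild-type enrichment, using inverse-variance-weighted averages across replicates, with the logarithm taken to base 2.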
row,Variant,polymerase ribozyme fitness (log ratio)
1,C49A G61C G110U U125C,-4.57
2,C49A A50C G117U,-3.66
3,C49A G93C G110U U132C,-2.27
4,G48U G110U U125A,-2.52
5,C49A C73A U130C,0.174
6,C49A A90U A91U A111C A119G U130A U131C,-2.85
7,G48U U54C C82G C115G,-3.12
8,C49U C73U A74U,-0.941
9,G48U U59C C70G,-6.09
10,C49A A50U C62U C88G C123U,-0.464
11,C49A C123A,0.189
12,C49A C123G,0.461
13,C49A U78G U87G A121G G128U,-0.14
14,C49G G110A A121C,-1.76
15,G48U G110A,-1.84
16,C49G C56A G71A G93C,-6.41
17,C49G U78C A95C,-2.13
18,C49A C56U A121U,1.74
19,G48U C124U U125A,0.397
20,C49U A66G,-1.95
21,C49A G61C C88U G117A G135C,-3.6
22,G48U U55G U112A,0.525
23,C49U C80A U81C U106A U112A,-4.56
24,C49G C62U C88A A95C U130G,-4.6

row,Variant,polymerase ribozyme fitness (log ratio)
1,C49A G52A,-0.855
2,C49U C73A C102U,-2.56
3,C49U C82G U96C C97U C115U U116A,-6.51
4,C49G G52U C56G C72G,-7.2
5,C49G G113A,-1.08
6,C49G G113U,-2.52
7,C49G A50U C72U,-1.85
8,C49G A91U,-2.92
9,C49A G60A,-0.214
10,C49A G60U,0.254
11,C49A C72G U132C,-0.77
12,C49A U59A G122A,-1.33
13,C49U A84C,-1.9
14,G48U U112C,0.623
15,C49A C104G,-6.42
16,C49G C62A C86A U96A,-3.84
17,G48U C89G,-1.92
18,C49G C70U G113U U125C U131G,-6.12
19,C49U C70A,-2.47
20,C49A G58A,-0.0101
21,C49A G71C C98U,-2.91
22,G48U U54C,-1.22
23,C49A C104G A111C,-6.5
24,C49G C124A,1.39

row,Variant,polymerase ribozyme fitness (log ratio)
1,C49U C102A,-3.24
2,C49U C85G,-2.2
3,G48U G69C,-2.22
4,C49A G71A C82A G120U,-2.99
5,C49G U81C,-3.21
6,C49A C79A A119G,-2.87
7,C49G G58C C79A,-5.19
8,G48U U106A G128C,-3.74
9,C49G U92A C123G,-3.27
10,C49G G61A A95C,-1.32
11,C49G G120A,0.175
12,C49G G120C,1.11
13,C49U A50C G69A G135U,-3.24
14,C49A U96A,-1.29
15,C49A U96C,-0.589
16,C49A A90U A111C G113A G122C,-3.8
17,G48U C114G G122A C123G,-3.44
18,G48U U87G A90U,-1.49
19,C49A C62A G71U G117A U130C,-1.49
20,C49U C73A A74U C102U,-3.4
21,C49G G63U U96G,-2.68
22,C49G C97G,-4.99
23,C49G A91U C115A G128C U131A,-6.98
24,G48U U131C,-0.204

row,Variant,polymerase ribozyme fitness (log ratio)
1,C49A A50C C86U,-0.434
2,C49U A74C G122A,-1.62
3,C49A C86A,-2.07
4,C49U C56A G120C,0.0733
5,C49A C73A C101G C115A G120A,-2.56
6,C49A C56A,-0.845
7,C49G G57U A83U G110A A121G,-1.99
8,C49G C88A U96G U125G,-2.28
9,C49A C70A G120C U126C U131G,-1.57
10,C49A C85U G113A A119C,-4.02
11,C49A G71A C101A C114A,-4.05
12,C49U A91U C115A,-2.58
13,C49A G63U C123A,-0.941
14,G48U C114U,-2.73
15,C49A U55G C70U C86U A95C C101U C123A G135C,-1.71
16,C49A G69A U106A,-2.86
17,G48U U59A G60U C79U U92G G122A C123A,-5.96
18,G48U U59C,0.407
19,C49G G69U C94U C114A G120A,-1.33
20,C49G G93U,-1.49
21,C49G G93C,-1.06
22,G48U G65U,-6.34
23,C49A G58C C88G A91U C104G A119G U133G,-7.73
24,C49G A50U,-1.05

row,Variant,polymerase ribozyme fitness (log ratio)
1,G48U G52U C102A,-4.14
2,C49G G93U C94A,-3.18
3,C49U C72G,-0.927
4,C49G C82U C101G,-2.53
5,C49G G71A C124G,0.642
6,C49A G117C,-3.75
7,C49A A83U,-0.343
8,C49G A68G G117U,-5.87
9,G48U C86A A91C,-1.98
10,C49A G71A,-0.646
11,C49U A50G U78C C115A,-1.98
12,C49A C73A,0.508
13,C49A C73G,-1.88
14,C49A C64U G117U,-2.9
15,C49A C53U G61A C101A,-0.913
16,C49U A50U,-3.59
17,C49G A103U C124U,-4.18
18,G48U G69A C85G,-3.42
19,C49A G93U U112G,-1.59
20,C49G C70G G77U U78A C85A,-2.95
21,G48U G69C C86G G113U,-6.36
22,C49G G60U C73U G128U,-3.07
23,C49A G110C U112A,-5.99
24,G48U C88U G110A,-1.01

row,Variant,polymerase ribozyme fitness (log ratio)
1,C49A A105C A118G U130A,-3.62
2,C49A A50C A119G,0.187
3,C49A G63U C97G U132A,-6.24
4,C49A G110A,-1.34
5,C49A G110U,-1.73
6,C49U A95G U112A,0.0263
7,G48U G71U C114U,-3.21
8,C49A U78A G120C,0.377
9,G48U G60U A66C U78G A90G C123A U132A,-1.91
10,G48U G93A G120A,-0.388
11,C49U C72U A75U U106G,-3.16
12,G48U G61C U78G C98U,-5.49
13,C49A A50G G52U A105U,-1.36
14,C49G C53A C94U U116G,-2.47
15,G48U C79U,-2.53
16,C49A C53G,-0.789
17,C49A C72U G113A G128C,-4.46
18,C49G C62G A75G C79U,-3.47
19,C49A C70A C97A G120U U130G,-6.14
20,C49G G110U,-2.51
21,C49G G52A C70A U96C,-4.29
22,C49G U54C G63C C88G U106G,-5.67
23,C49A A74G U116G,-1.13
24,C49U C104U,-0.182

row,Variant,polymerase ribozyme fitness (log ratio)
1,G48U U87A,-1.44
2,C49A G61U A83C U129C,-0.881
3,C49A C124U U132C,1.03
4,C49U C98U U125G,-2.62
5,C49A C73A C88U A91U,-1.03
6,C49G C73A C85U C89A,-2.43
7,C49G U116G,-2.61
8,C49G C82U G93U G117U,-4.66
9,C49U C73A U81G,-2.45
10,C49U C115U,-1.16
11,C49U C115G,-2.23
12,G48U C123U,0.57
13,C49U C89G,-1.74
14,C49U C56A U109A G117U,-5.98
15,C49G G51A G61C C94U,-3.22
16,C49A A50G,-1.27
17,C49A C89U U92C A95G U96A G113A U133A,-3.76
18,C49A,-0.241
19,C49U,-0.473
20,C49G,-0.312
21,C49G U78G,-0.998
22,C49G G122A,-0.99
23,C49A G71U U92A C123U,-2.65
